{"source": "patent US20130130379A1", "about": "(published 2013)", "key": {"Human CXCR4 [1]": {"target": "T1, Human CXCR4 (human, UniProt P61073-2 2-356)", "T1 construct": "also called hCXCR4", "T1 sequence (P61073 other isoform, or with tags, fused parts or gaps)": "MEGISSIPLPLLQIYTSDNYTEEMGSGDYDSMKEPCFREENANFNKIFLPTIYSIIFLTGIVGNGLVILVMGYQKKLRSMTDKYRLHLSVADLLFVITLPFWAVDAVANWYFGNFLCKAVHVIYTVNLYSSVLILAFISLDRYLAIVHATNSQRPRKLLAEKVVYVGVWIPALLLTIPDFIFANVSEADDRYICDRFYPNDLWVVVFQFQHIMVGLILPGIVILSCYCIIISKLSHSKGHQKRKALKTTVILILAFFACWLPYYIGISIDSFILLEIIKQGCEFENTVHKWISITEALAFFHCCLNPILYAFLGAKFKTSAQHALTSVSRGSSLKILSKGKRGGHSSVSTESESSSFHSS", "test": "membrane binding experiments, displacement of 125I-CXCL12"}, "[2]": {"target": "parathyroid hormone receptor (PTHR1)", "sequence (Q03431 27-593)": "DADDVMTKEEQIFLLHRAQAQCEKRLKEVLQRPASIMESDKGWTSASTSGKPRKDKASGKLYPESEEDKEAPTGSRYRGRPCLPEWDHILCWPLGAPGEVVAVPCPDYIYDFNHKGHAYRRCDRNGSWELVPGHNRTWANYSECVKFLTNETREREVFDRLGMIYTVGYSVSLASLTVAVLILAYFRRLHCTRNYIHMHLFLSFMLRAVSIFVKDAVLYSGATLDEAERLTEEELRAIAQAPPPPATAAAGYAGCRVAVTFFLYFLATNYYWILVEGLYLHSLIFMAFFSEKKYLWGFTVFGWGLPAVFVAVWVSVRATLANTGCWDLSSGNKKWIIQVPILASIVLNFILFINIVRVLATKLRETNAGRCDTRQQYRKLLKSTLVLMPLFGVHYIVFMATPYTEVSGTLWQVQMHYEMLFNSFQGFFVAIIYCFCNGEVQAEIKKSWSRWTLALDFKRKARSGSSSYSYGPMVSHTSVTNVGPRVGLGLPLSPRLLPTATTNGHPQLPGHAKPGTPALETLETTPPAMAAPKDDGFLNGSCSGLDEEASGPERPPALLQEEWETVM", "test": "Biacore (SPR); PTHR - CaCl2; the table names no quantity; upper end of the range"}, "[3]": {"target": "parathyroid hormone receptor (PTHR1)", "test": "Biacore (SPR); PTHR - CaCl2; the table names no quantity; lower end of the range"}, "[4]": {"target": "parathyroid hormone receptor (PTHR1)", "test": "Biacore (SPR); PTHR + CaCl2; the table names no quantity; lower end of the range"}, "[5]": {"target": "parathyroid hormone receptor (PTHR1)", "test": "Biacore (SPR); PTHR + CaCl2; the table names no quantity; upper end of the range"}, "Human CXCR7": {"target": "T2, Human CXCR7 (human, UniProt P25106 1-362)", "T2 construct": "also called hCXCR7", "T2 sequence (P25106 whole entry)": "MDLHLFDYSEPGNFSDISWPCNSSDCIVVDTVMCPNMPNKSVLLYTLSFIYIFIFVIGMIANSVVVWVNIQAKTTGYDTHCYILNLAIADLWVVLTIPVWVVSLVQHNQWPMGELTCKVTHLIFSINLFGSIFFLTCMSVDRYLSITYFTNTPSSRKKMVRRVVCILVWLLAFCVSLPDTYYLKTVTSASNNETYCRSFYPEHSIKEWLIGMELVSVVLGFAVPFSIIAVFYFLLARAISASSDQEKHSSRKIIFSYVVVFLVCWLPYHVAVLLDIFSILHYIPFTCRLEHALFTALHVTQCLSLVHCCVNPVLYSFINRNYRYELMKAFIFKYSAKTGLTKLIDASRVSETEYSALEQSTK", "test": "phage ELISA and FACS"}, "[6]": {"target": "Cannabinoid Receptor 1 (CB1R)", "sequence (P47746 whole entry)": "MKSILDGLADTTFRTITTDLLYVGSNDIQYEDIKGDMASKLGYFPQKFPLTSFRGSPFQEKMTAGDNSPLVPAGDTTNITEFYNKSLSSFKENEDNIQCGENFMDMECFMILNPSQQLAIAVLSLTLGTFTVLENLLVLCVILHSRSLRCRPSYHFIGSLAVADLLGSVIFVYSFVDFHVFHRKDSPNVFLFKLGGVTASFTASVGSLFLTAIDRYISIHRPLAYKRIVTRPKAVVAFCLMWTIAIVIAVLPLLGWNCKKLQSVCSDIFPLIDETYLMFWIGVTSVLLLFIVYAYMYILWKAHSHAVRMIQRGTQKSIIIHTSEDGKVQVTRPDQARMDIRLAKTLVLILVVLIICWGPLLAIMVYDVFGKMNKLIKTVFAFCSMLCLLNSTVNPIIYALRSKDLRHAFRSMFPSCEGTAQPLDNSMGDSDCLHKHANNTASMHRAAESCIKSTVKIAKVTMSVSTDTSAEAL", "test": "Biacore (SPR); the table names no quantity, heading 'Binding of clones against CB1R'"}, "[7]": {"target": "parathyroid hormone receptor (PTHR1)", "test": "Biacore (SPR); PTHR - CaCl2; the table names no quantity"}, "[8]": {"target": "parathyroid hormone receptor (PTHR1)", "test": "Biacore (SPR); PTHR + CaCl2; the table names no quantity"}, "[9]": {"target": "parathyroid hormone receptor (PTHR1)", "test": "Biacore (SPR); PTHR Fos12; the table names no quantity"}, "Human CXCR4 [10]": {"target": "T1, Human CXCR4", "test": "displacement of [125I]-CXCL12, membranes from HEK293T cells transiently expressing CXCR4; n=4"}}}
{"molecule": "mAb 12G5 (antibody)", "values": [{"measurement": "displacement of radiolabeled 125I-CXCL12", "setting": "Human CXCR4 [1]", "value": 50, "unit": "%"}]}
{"molecule": "PTH (1-34) (ligand) (from UniProt P01270 32-65) (peptide)", "values": [{"measurement": "Kd", "setting": "[2]", "value": "4 to 23", "unit": "nM"}, {"measurement": "Kd", "setting": "[3]", "value": "4 to 23", "unit": "nM"}, {"measurement": "Kd", "setting": "[4]", "value": "0.2 to 16", "unit": "nM"}, {"measurement": "Kd", "setting": "[5]", "value": "0.2 to 16", "unit": "nM"}]}
{"molecule": "08A05 (VHH, Group 2 anti-CXCR7 Nanobody; also called Nanobody 08A05) VHH: EVQLVESGGGLVQAGDSLRLSCAASGLTFSNYDMGWFRQAPGKEREFVGASWWSGGAPYYSDSVKGRFTISRDNAKNTVYLQANSLRPEDTAVYYCAAKRLRSFASGGSYDYWGQGTQVTVSS", "values": [{"measurement": "binding result", "setting": "Human CXCR7", "value": "binds"}]}
{"molecule": "LGPMP6_B7 (VHH) VHH: EVQLVESGGGLVQAGGSLRLSCAASGRTLRNYDMGWFRQAPGKEREFVATIRWSTSETYYADSVKGRFTISSDNAKNTVDLQMNSLTPGDTGVYYCAARSVYSYDYNYWGQGTQVTVSS", "values": [{"measurement": "Kd", "setting": "[6]", "value": 12, "unit": "nM"}]}
{"molecule": "LGPMP5_G11 (VHH) VHH: EVQLVKSGGGLVQAGGSLRLSCAASGRTLSNYDMGWFRQAPGKEREFVATIRWSTGETYYTDSVKGRFTISKDNTKNTVDLQMNSLTPEDTAVYYCASRSVYSYEYNYWGQGTQVTVSS", "values": [{"measurement": "Kd", "setting": "[6]", "value": 12, "unit": "nM"}]}
{"molecule": "PMPLG22-A3 (VHH) VHH: EVQLVESGGGLVQAGGSLRLSCAASGNIFANNIMGWYRQPPGKEREFVAHVSHDGDSMYAVSVKGRFAISRKDATNLYLQMNSLKPEDTAIYFCRLLNIPTQGRMEGFWGQGTQVTVSS", "values": [{"measurement": "Kd", "setting": "[7]", "value": 17, "unit": "nM"}, {"measurement": "Kd", "setting": "[8]", "value": 9, "unit": "nM"}]}
{"molecule": "08A10 (VHH, Group 2 anti-CXCR7 Nanobody; also called Nanobody 08A10) VHH: EVQLVESGGGLVQAGGSLRLSCAASGSIFSIAAMGWYRQATGKQRELVATITDGGTTTYADSVKGRVTISRDRSANTVYLAMNNLKPDDTAVYYCYAYLRYTSRVPGDNYWGQGTQVTVSS", "values": [{"measurement": "binding result", "setting": "Human CXCR7", "value": "binds"}]}
{"molecule": "01C10 (VHH, Group 1 anti-CXCR7 Nanobody; also called Nanobody 01C10) VHH: EVQLVESGGGLVQTGASLRLSCAASGRTFSNYAMGWFRQAPGKERERVAAITPRAFTTYYADSVKGRFTISRDNAKNTAYLQMVSLKPEDTAVYYCAAQLVGSGSNLGRQESYAYWGQGTQVTVSS", "values": [{"measurement": "binding result", "setting": "Human CXCR7", "value": "binds"}]}
{"molecule": "LGPMP6_H4 (VHH) VHH: EVQLVESGGGLVQAGGSLRLACAASGSIFSFNAMGWYRQAPGKQRELLAVITRDGITKYADSVKGRFTISRDNAKNTMYLQMNSLKPEDTAVYYCHTGLPTGRGSHSDYWGQGTQVTVSS", "values": [{"measurement": "Kd", "setting": "[6]", "value": 36, "unit": "nM"}]}
{"molecule": "PMPLG26-A6 (VHH) VHH: EVQLVESGGGLVQAGGSLRLSCAASRSRSSFDDMGWYRQAPGKQREFVGGITLGGSTIYADSVKGRFTISMDSARNTGYLQMNSLKPEDTAVYYCNAALDGYSGSSWGQGTQVTVSS", "values": [{"measurement": "Kd", "setting": "[7]", "value": 17, "unit": "nM"}]}
{"molecule": "PMPLG26-F2 (VHH) VHH: EVQLVESGGGLVQAGGSLRLSCVASGFSFDDYAIGWFRQAPGQDREPLACITSGGTRNYNPSVMARFRIDRDNSVKTVYLQINTLKPEDTAVYYCSTELDRQGGSAHECREYDTWGQGTQVTVSS", "values": [{"measurement": "Kd", "setting": "[9]", "value": 360, "unit": "nM"}, {"measurement": "Kd", "setting": "[8]", "value": 70, "unit": "nM"}]}
{"molecule": "238D4-20GS-238D4 (VHH, also called L13) EVQLMESGGGLVQAGGSLRLSCAASGRTFNNYAMGWFRRAPGKEREFVAAITRSGVRSGVSAIYGDSVKDRFTISRDNAKNTLYLQMNSLKPEDTAVYTCAASAIGSGALRRFEYDYSGQGTQVTVSSGGGGSGGGGSGGGGSGGGGSEVQLMESGGGLVQAGGSLRLSCAASGRTFNNYAMGWFRRAPGKEREFVAAITRSGVRSGVSAIYGDSVKDRFTISRDNAKNTLYLQMNSLKPEDTAVYTCAASAIGSGALRRFEYDYSGQGTQVTVSS", "values": [{"measurement": "Ki", "setting": "Human CXCR4 [10]", "value": 1, "unit": "nM"}]}
{"molecule": "PMPLG23-A3 (VHH) VHH: EVQLVESGGGLVQAGGSLRLSCAASGLTFSNYAMGWFRQAPGKEREWVASINWSGGSTYYEDSVEGRFTISRDNAKNTVNLQMNSLKPEDTAVYYCAAKRGHYSREYDYWGQGTQVTVSS", "values": [{"measurement": "Kd", "setting": "[7]", "value": 22, "unit": "nM"}]}
